The text below walks through data of paper PMC6652776.

The target in assay [1] is PE-PilA fusion protein (version used in solution and ELISA experiments) (nontypeable Haemophilus influenzae strain 772 | nontypeable Haemophilus influenzae strain 86-028NP). Briefly: AUC; sedimentation velocity, 25,000 rpm, AN-60Ti rotor, 15°C, absorbance at 280 nm, c(S) model in Sedfit.
In assay [2] the target is protein E (PE), recombinant, isolated (nontypeable Haemophilus influenzae strain 772). Described as above.

As usually defined, the stoichiometry N is the number of molecules, sites or subunits per partner or assembly. As for “PE-PilA fusion protein (version used in solution and ELISA experiments)”, the stoichiometry N in assay [1] was determined as 2.
Take “protein E (PE), recombinant, isolated (domain or fragment)”: the stoichiometry N in assay [2] came to 2.
